# Reference: patent US20250011418A1 (ZIELBIO, published 2025)
# Where two headings read alike, the source gives them in different places.
# Experiments:
# [1] = biological target: T1, Reb-His (Reb, a sub-fragment of Sec8, tagged with a polyhistidine (His) tag); test: ELISA on REB-HIS, absorbance 650 nm; no unit stands beside the number, the concentration axis is in nM
# T1 construct: also called Reb-His peptide
# T1 chain: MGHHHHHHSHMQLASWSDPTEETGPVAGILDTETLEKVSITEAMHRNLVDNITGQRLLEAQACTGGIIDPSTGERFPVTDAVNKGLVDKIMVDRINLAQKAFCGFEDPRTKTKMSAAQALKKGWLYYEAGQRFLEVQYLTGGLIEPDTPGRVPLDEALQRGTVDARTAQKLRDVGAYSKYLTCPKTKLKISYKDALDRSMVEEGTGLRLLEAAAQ
# [2] = biological target: T2, Sec8-His (section 8 (Sec8), an antigenic region of CSP-1, tagged with a polyhistidine (His) tag); test: ELISA on Sec8-His (target per paragraph 36), absorbance 650 nm; curve assigned by the marker in the legend
# T2 construct: also called Sec8-His antigen
# T2 chain: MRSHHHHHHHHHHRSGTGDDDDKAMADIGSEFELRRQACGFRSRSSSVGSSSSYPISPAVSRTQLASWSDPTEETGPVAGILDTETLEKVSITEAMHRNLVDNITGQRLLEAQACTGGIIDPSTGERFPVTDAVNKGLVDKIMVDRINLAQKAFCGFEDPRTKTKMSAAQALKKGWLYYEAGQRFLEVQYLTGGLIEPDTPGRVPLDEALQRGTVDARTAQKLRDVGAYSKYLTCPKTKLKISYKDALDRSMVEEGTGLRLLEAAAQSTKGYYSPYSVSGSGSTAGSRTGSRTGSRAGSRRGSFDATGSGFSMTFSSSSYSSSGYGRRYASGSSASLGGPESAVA
# [3] = biological target: T2, Sec8-His (section 8 (Sec8), an …); test: ELISA on Sec8-His (target per paragraph 36), absorbance 650 nm; no unit stands beside the number, the concentration axis is in nM; number as printed beside the name, but it fits the circle curve better than the square curve
# [4] = biological target: T2, Sec8-His (section 8 (Sec8), an …); test: ELISA on Sec8-His (target per paragraph 36), absorbance 650 nm; no unit stands beside the number, the concentration axis is in nM; number as printed beside the name, but it fits the square curve better than the circle curve
# [5] = biological target: T2, Sec8-His (section 8 (Sec8), an …); test: BLI (Octet), single shot: antibody on anti-human IgG tips, 24 nM Sec8-His
# Protocol: After humanization, the antibodies were tested for their capability to bind to an antigenic region of CSP-1 called section 8 (Sec8). Antigen binding was assessed by single-shot Octet analysis. Antibodies were loaded onto anti-human IgG tips, and the loaded tips were dipped into wells containing the Sec8-His antigen. Scouting experiments were used to determine ideal conditions for loading (10 minute incubation in 1 μg/mL IgG) and antigen binding (5 minute incubation in 24 nM Sec8-His, followed by a 5 minute dissociation step in buffer). Two negative controls were included with each experiment. First, a tip was loaded with irrelevant IgG dipped into 24 nM Sec8-His to control for non-specific interactions between the tip and the antigen. Next, tips loaded with humanized 1D7 variants were dipped into 24 nM GST-His to control for off-target binding of the antibody (a significant risk if a given variant is destabilized and/or exposes significant hydrophobic surface). The data from the irrelevant IgG control were subtracted from the data obtained with the […]-loaded tips. The mean and standard deviation of the signal change values for the GST-His control wells were used to calculate a threshold for positive binding (mean+3 standard deviations of the GST-His signal). Variants that were below this threshold are considered to have no specific binding to Sec8.
# [6] = biological target: T1, Reb-His (Reb, a sub-fragment of Sec8, …); test: ELISA on REB-HIS, absorbance 650 nm; no unit stands beside the number, the concentration axis is in nM
# [7] = biological target: T1, Reb-His (Reb, a sub-fragment of Sec8, …); test: ELISA on REB-HIS, absorbance 650 nm against concentration in nM on a log axis
Binder,binding result [5],also measured
"murine anti-CSP-1 antibody 1H11 (antibody, V domains shown, Murine antibody; also called 1H11B5) VH: QIQLVQSGPELKKPGETVKISCKASGYTFTDYSMHWVKQAPGKGLKWMGWINTETGEPTYADDFKGRFAFSLETSASTAYLQINNLKNEDTATYFCAPGGFAYWGQGTLVTVSA VL: DIVMTQAAPSVPVTPGESVSISCRSSKSLLHSNGNTYLYWFLQRPGQSPQLLIYRMSNLASGVPDRFSGSGSGTAFTLRISRVEAEDVGVYYCMQHLEYPLTFGAGTKLELKR",–,EC50 [1]: 0.531 nM; EC50 (read off the curve) [2]: ~0.1 nM; Kd [3]: 0.583 nM
"antibody-drug conjugate comprising the murine anti-CSP-1 antibody 1H11 and the chemotherapeutic drug SN38 (antibody, V domains shown, SN38 (small-molecule drug) is conjugated to the antibody. The linker, the conjugation residues, the chain that carries it and the drug-to-antibody ratio are not stated, and the letters cannot carry it., also called 1H11-SN38 conjugate) VH: QIQLVQSGPELKKPGETVKISCKASGYTFTDYSMHWVKQAPGKGLKWMGWINTETGEPTYADDFKGRFAFSLETSASTAYLQINNLKNEDTATYFCAPGGFAYWGQGTLVTVSA VL: DIVMTQAAPSVPVTPGESVSISCRSSKSLLHSNGNTYLYWFLQRPGQSPQLLIYRMSNLASGVPDRFSGSGSGTAFTLRISRVEAEDVGVYYCMQHLEYPLTFGAGTKLELKR",–,EC50 (read off the curve) [2]: ~0.6 nM; Kd [4]: 0.14 nM
"humanized anti-CSP-1 antibody, Antibody Number 42 (Table 1) (antibody, human IgG1, V domains shown, also called Antibody 42) VH: QIQLVQSGSELKKPGASVKVSCKASGYTFTDYSMHWVRQAPGQGLEWMGWINTETGEPTYAQGFTGRFVFSLDTSVSTAYLQISSLKAEDTAVYFCAPGGFAYWGQGTLVTVSS VL: DIVMTQSPLSLPVTPGEPASISCRSSKSLLHSNGNTYLYWFLQKPGQSPQLLIYRMSNLASGVPDRFSGSGSGTDFTLKISRVEAEDVGVYYCMQHLEYPLTFGAGTKLELK",binds,–
"humanized anti-CSP-1 antibody, Antibody Number 44 (Table 1) (antibody, human IgG1, V domains shown, also called Antibody 44) VH: EVQLVESGGGLVKPGGSLRLSCAASGFTFSRYGMNWVRQAPGKGLEWVSSISIGGTYTYYADSVKGRFTISRDNAKNSLYLQMNSLRAEDTAVYYCARRGYGNYSYYGMDYWGQGTLVTVSS VL: DIVMTQSPLSLPVTPGEPASISCRSSKSLLHSNGITYLYWYLQKPGQSPQLLIYQMSNLASGVPDRFSGSGSGTDFTLKISRVEAEDVGVYYCAQNLELPLTFGQGTKLEIK",binds,–
"humanized anti-CSP-1 antibody, Antibody Number 43 (Table 1) (antibody, human IgG1, V domains shown, also called Antibody 43) VH: EVQLVESGGGLVKPGGSLRLSCAASGFTFSRYGMNWVRQAPGKGLEWVSSISIGGTYTYYADSVKGRFTISRDNAKNSLYLQMNSLRAEDTAVYYCARRGYGNYSYYGMDYWGQGTLVTVSS VL: DIVMTQSPLSLPVTPGEPASISCRSSKSLLHSNGITYLYWYLQKPGQSPQLLIYQMSNRASGVPDRFSGSGSGTDFTLKISRVEAEDVGVYYCAQNLELPLTFGQGTKLEIK",binds,–
"humanized anti-CSP-1 antibody, Antibody Number 8 (Table 1) (antibody, human IgG1, V domains shown, also called Antibody 8) VH: QIQLVQSGPEVKKPGASVKISCKASGYTFTDYSMHWVRQAPGQGLEWMGWINTETGEPTYAQKFQGRFTFTLDTSTSTAYLEISSLRSEDTAVYFCAPGGFAYWGQGTLVTVSS VL: DIVMTQAAPSVPVTPGESVSISCRSSKSLLHSNGNTYLYWFLQRPGQSPQLLIYRMSNLASGVPDRFSGSGSGTAFTLRISRVEAEDVGVYYCMQHLEYPLTFGAGTKLELK",binds,–
"humanized anti-CSP-1 antibody, Antibody Number 40 (Table 1) (antibody, human IgG1, V domains shown, also called Antibody 40) VH: QVQLVQSGSELKKPGASVKVSCKASGYTFTDYSMNWVRQAPGQGLEWMGWINTETGEPTYAQGFTGRFVFSLDTSVSTAYLQISSLKAEDTAVYYCAPGGFAYWGQGTLVTVSS VL: DIVMTQSPLSLPVTPGEPASISCRSSKSLLHSNGNTYLYWFLQKPGQSPQLLIYRMSNRASGVPDRFSGSGSGTDFTLKISRVEAEDVGVYYCMQHLEYPLTFGQGTKLEIK",binds,–
"humanized anti-CSP-1 antibody, Antibody Number 48 (Table 1) (antibody, human IgG1, V domains shown, also called Antibody 48) VH: QIQLVQSGSELKKPGASVKVSCKASGYTFTDYSMHWVRQAPGQGLEWMGWINTETGEPTYAQGFTGRFVFSLDTSVSTAYLQISSLKAEDTAVYFCAPGGFAYWGQGTLVTVSS VL: DIVMTQSPLSLPVTPGEPASISCRSSKSLLHSNGNTYLYWFLQKPGQSPQLLIYRLSNLASGVPDRFSGSGSGTDFTLKISRVEAEDVGVYYCMQHLEYPLTFGAGTKLELK",binds,–
"humanized anti-CSP-1 antibody, Antibody Number 41 (Table 1) (antibody, human IgG1, V domains shown, also called Antibody 41) VH: QIQLVQSGSELKKPGASVKVSCKASGYTFTDYSMHWVRQAPGQGLEWMGWINTETGEPTYAQGFTGRFVFSLDTSVSTAYLQISSLKAEDTAVYFCAPGGFAYWGQGTLVTVSS VL: DIVMTQSPLSLPVTPGEPASISCRSSKSLLHSNGNTYLYWFLQKPGQSPQLLIYRMSNRASGVPDRFSGSGSGTDFTLKISRVEAEDVGVYYCMQHLEYPLTFGQGTKLEIK",binds,–
"murine anti-CSP-1 antibody 1D7 (hybridoma clone) (antibody, V domains shown, Murine antibody) VH: EVQLVESGGDLVKPGGSLKLSCAASGFTFSRYGMSWVRQTPDKRLEWVATISIGGTYTYYPDSMKGRFTISRDNAKNTLYLQMSSLKSEDTAMYYCARRGYGNYSYYGMDYWGQGTSVTVSS VL: DIVMTQAAFSNPVTLGTSASISCRSSKSLLHSNGITYLYWYLQKPGQSPQLLIYQMSNLASGVPDRFSSSGSGTDFTLRISRVEAEDVGVYYCAQNLELPLTFGAGTKLELK",–,EC50 [6]: 0.365 nM; EC50 (read off the curve) [7]: ~0.4 nM
"humanized anti-CSP-1 antibody, Antibody Number 50 (Table 1) (antibody, human IgG1, V domains shown, also called Antibody 50) VH: EVQLVESGGGLVQPGGSLRLSCAASGFTFSRYGMSWVRQAPGKRLEWVATISIGGTYTYYPDSMKGRFTISRDNSKNTLYLQMNSLRAEDTAMYYCARRGYGQYSYYGLDYWGQGTLVTVSS VL: DIVMTQSALSNPVTLGQSASISCRSSKSLLHSNGITYLYWYLQKPGQSPQLLIYQMSNRASGVPDRFSSSGSGTDFTLKISRVEAEDVGVYYCAQNLELPLTFGQGTKLEIK",binds,–
"humanized anti-CSP-1 antibody, Antibody Number 45 (Table 1) (antibody, human IgG1, V domains shown, also called Antibody 45) VH: EVQLVESGGGLVKPGGSLRLSCAASGFTFSRYGMNWVRQAPGKGLEWVSSISIGGTYTYYADSVKGRFTISRDNAKNSLYLQMNSLRAEDTAVYYCARRGYGNYSYYGMDYWGQGTLVTVSS VL: DIVMTQSPLSLPVTPGEPASISCRSSKSLLHSNGITYLYWYLQKPGQSPQLLIYQMSNLASGVPDRFSSSGSGTDFTLKISRVEAEDVGVYYCAQNLELPLTFGQGTKLEIK",binds,–
"humanized anti-CSP-1 antibody, Antibody Number 49 (Table 1) (antibody, human IgG1, V domains shown, also called Antibody 49) VH: EVQLVESGGGLVQPGGSLRLSCAASGFTFSRYGMSWVRQAPGKRLEWVATISIGGTYTYYPDSMKGRFTISRDNSKNTLYLQMNSLRAEDTAMYYCARRGYGQYSYYGMDYWGQGTLVTVSS VL: DIVMTQSALSNPVTLGQSASISCRSSKSLLHSNGITYLYWYLQKPGQSPQLLIYQMSNRASGVPDRFSSSGSGTDFTLKISRVEAEDVGVYYCAQNLELPLTFGQGTKLEIK",binds,–
"humanized anti-CSP-1 antibody, Antibody Number 46 (Table 1) (antibody, human IgG1, V domains shown, also called Antibody 46) VH: EVQLVESGGGLVKPGGSLRLSCAASGFTFSRYGMSWVRQAPGKGLEWVSSISIGGTYTYYADSVKGRFTISRDNAKNSLYLQMNSLRAEDTAVYYCARRGYGNYSYYGMDYWGQGTLVTVSS VL: DIVMTQSPLSLPVTPGEPASISCRSSKSLLHSNGITYLYWYLQKPGQSPQLLIYQMSNLASGVPDRFSSSGSGTDFTLKISRVEAEDVGVYYCAQNLELPLTFGQGTKLEIK",binds,–
